Measurements taken from patent US20230365641A1 (XILIO DEVELOPMENT, published 2023).

Legend:
[1] = biological target: PD-1 (antigen of the ELISA and of the in vitro affinity measurement) (UniProt Q15116 25-167, limits assumed); experiment: kinetic binding table: TC3 captured as ligand (capture level 78.1 RU), hPD1-his as sample; method not given
[2] = biological target: T1, PD-1 shown on cells (Raji-PD-1 cells); CD3/CD28 activated human CD8+ T cells; PD-1 effector cells of the … (human, UniProt Q15116 25-288); experiment: flow cytometry on CD3+CD8+ T cells within CD3/CD28 activated human PBMCs, 1 h at 4 C, anti-human IgG PE, % anti-hIgG+; table CD8+ T cells under the graph
T1 construct: whole, on cells; Human is stated for the PBMCs; also called hPD-1; PD1 expressing Raji cells
Experimental: Mixed donor lots of human peripheral blood mononuclear cells (PBMCs) were thawed and seeded in medium (RPMI1640, 10% fetal bovine serum (FBS), 2 mM 1-Glutamine, 50 U/mL penicillin, 50 μg/mL streptomycin, 1 μM each of non-essential amino acids, 10 mM HEPES, 1 mM sodium pyruvate, 55 μM B-mercaptoethanol, 10 μg/mL gentamycin) into tissue culture treated plates that were coated for 1 h at 37° C. with 1 μg/ml anti-CD3. Anti-CD28 was added in solution at a concentration of 5 μg/ml. Two days later the PBMCs were collected and transferred into a 96 well v-bottom plate at 100,000 cells per well in FACS Buffer (2% FBS in phosphate buffered saline (PBS)). Test articles were diluted to twice the indicated concentration in FACS buffer. Test articles were added to cells at a 1:1 ratio to the final concentration indicated in the figure and incubated for 1 h at 4° C. The cells were washed three times with FACS buffer and fixed in 4% PFA. Cells were then washed once in FACS buffer. All cells were stained in 100 μL of indicated molecules in FACS buffer for 1 h at 4° C. The cells were washed three times with FACS buffer and fixed in 4% paraformaldehyde (PFA). All cells were subsequently stained in 100 μL with anti-human IgG PE, anti-CD3 PE/Dazzle 594, anti-CD45 PerCP Cy5.5, anti-CD8 BV510, and anti-CD4 BV421 for 30 minutes. Cells were washed twice to remove unbound antibody and analyzed on the BD Celesta by gating on CD3+CD8+ T cells.

T1 sequence (Q15116 25-288): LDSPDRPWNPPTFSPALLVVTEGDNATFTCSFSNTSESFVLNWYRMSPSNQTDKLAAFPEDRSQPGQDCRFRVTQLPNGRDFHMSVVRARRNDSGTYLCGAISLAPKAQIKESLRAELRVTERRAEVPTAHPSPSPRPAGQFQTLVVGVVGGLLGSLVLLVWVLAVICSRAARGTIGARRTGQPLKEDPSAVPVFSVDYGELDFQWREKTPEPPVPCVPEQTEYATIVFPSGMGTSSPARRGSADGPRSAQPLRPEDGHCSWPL
Chain of PD-1 (antigen of the ELISA and of the in vitro affinity measurement) (Q15116 25-167 limits assumed): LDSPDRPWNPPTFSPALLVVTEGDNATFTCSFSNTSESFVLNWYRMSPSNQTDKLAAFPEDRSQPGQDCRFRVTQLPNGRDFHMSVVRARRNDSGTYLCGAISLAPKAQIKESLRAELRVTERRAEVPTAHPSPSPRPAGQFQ

| Kd [1] | koff [1] | kon [1] | EC50 [2] | Binder |
| --- | --- | --- | --- | --- |
| 7.11 nM | 0.00328 s⁻¹ | 461000 M⁻¹ s⁻¹ | 0.1 nM | TC3 (Fc fusion, Bivalent anti-PD-1 Fab) heavy 1: QVQLVQSGVEVKKPGASVKVSCKASGYTFTNYYMYWVRQAPGQGLEWMGGINPSNGGTNFNEKFKNRVTLTTDSSTTTAYMELKSLQFDDTAVYYCARRDYRFDMGFDYWGQGTTVTVSSASTKGPSVFPLAPSSKSTSGGTAALGCLVKDYFPEPVTVSWNSGALTSGVHTFPAVLQSSGLYSLSSVVTVPSSSLGTQTYICNVNHKPSNTKVDKKVEPKSCDKTHTCPPCPAPELLGGPSVFLFPPKPKDTLMISRTPEVTCVVVDVSHEDPEVKFNWYVDGVEVHNAKTKPREEQYASTYRVVSVLTVLHQDWLNGKEYKCKVSNKALPAPIEKTISKAKGQPREPQVYTLPPCRDELTKNQVSLWCLVKGFYPSDIAVEWESNGQPENNYKTTPPVLDSDGSFFLYSKLTVDKSRWQQGNVFSCSVMHEALHNRFTQKSLSLSPGGGSSPPGGGSSGGGSGPAPTSSSTKKTQLQLEHLLLDLQMILNGINNYKNPKLTAMLTAKFAMPKKATELKHLQCLEEALKPLEEVLNLAQSKNFHLRPRDLISNINVIVLELKGSETTFMCEYADETATIVEFLNRWITFAQSIISTLT heavy 2: QVQLVQSGVEVKKPGASVKVSCKASGYTFTNYYMYWVRQAPGQGLEWMGGINPSNGGTNFNEKFKNRVTLTTDSSTTTAYMELKSLQFDDTAVYYCARRDYRFDMGFDYWGQGTTVTVSSASTKGPSVFPLAPSSKSTSGGTAALGCLVKDYFPEPVTVSWNSGALTSGVHTFPAVLQSSGLYSLSSVVTVPSSSLGTQTYICNVNHKPSNTKVDKKVEPKSCDKTHTCPPCPAPELLGGPSVFLFPPKPKDTLMISRTPEVTCVVVDVSHEDPEVKFNWYVDGVEVHNAKTKPREEQYASTYRVVSVLTVLHQDWLNGKEYKCKVSNKALPAPIEKTISKAKGQPREPQVCTLPPSRDELTKNQVSLSCAVKGFYPSDIAVEWESNGQPENNYKTTPPVLDSDGSFFLVSKLTVDKSRWQQGNVFSCSVMHEALHNHYTQKSLSLSPGGPPSGSSPMPYDLYHPSGGGAVNGTSQFTCFYNSRANISCVWSQDGALQDTSCQVHAWPDRRRWNQTCELLPVSQASWACNLILGAPDSQKLTTVDIVTLRVLCREGVRWRVMAIQDFKPFENLRLMAPISLQVVHVETHRSNISWEISQASHYFERHLEFEARTLSPGHTWEEAPLLTLKQKQEWISLETLTPDTQYEFQVRVKPLQGEFTTWSPWSQPLAFRTKPAALGKD light: EIVLTQSPATLSLSPGERATLSCRASKGVSTSGYSYLHWYQQKPGQAPRLLIYLASYLESGVPARFSGSGSGTDFTLTISSLEPEDFAVYYCQHSRDLPLTFGGGTKVEIKRTVAAPSVFIFPPSDEQLKSGTASVVCLLNNFYPREAKVQWKVDNALQSGNSQESVTEQDSKDSTYSLSSTLTLSKADYEKHKVYACEVTHQGLSSPVTKSFNRGEC |
| – | – | – | 0.1 nM | TC24 (Fc fusion, Mask CD122 (C122S, C168S)) heavy 1: QVQLVQSGVEVKKPGASVKVSCKASGYTFTNYYMYWVRQAPGQGLEWMGGINPSNGGTNFNEKFKNRVTLTTDSSTTTAYMELKSLQFDDTAVYYCARRDYRFDMGFDYWGQGTTVTVSSASTKGPSVFPLAPSSKSTSGGTAALGCLVKDYFPEPVTVSWNSGALTSGVHTFPAVLQSSGLYSLSSVVTVPSSSLGTQTYICNVNHKPSNTKVDKKVEPKSCDKTHTCPPCPAPELLGGPSVFLFPPKPKDTLMISRTPEVTCVVVDVSHEDPEVKFNWYVDGVEVHNAKTKPREEQYASTYRVVSVLTVLHQDWLNGKEYKCKVSNKALPAPIEKTISKAKGQPREPQVYTLPPCRDELTKNQVSLWCLVKGFYPSDIAVEWESNGQPENNYKTTPPVLDSDGSFFLYSKLTVDKSRWQQGNVFSCSVMHEALHNRFTQKSLSLSPGGGSSPPGGGSSGGGSGPAPTSSSTKKTQLQLEHLLLDLQMILNGINNYKNPKLTAMLTAKFAMPKKATELKHLQCLEEALKPLEEVLNLAQSKNFHLRPRDLISNINVIVLELKGSETTFMCEYADETATIVEFLNRWITFAQSIISTLT heavy 2: QVQLVQSGVEVKKPGASVKVSCKASGYTFTNYYMYWVRQAPGQGLEWMGGINPSNGGTNFNEKFKNRVTLTTDSSTTTAYMELKSLQFDDTAVYYCARRDYRFDMGFDYWGQGTTVTVSSASTKGPSVFPLAPSSKSTSGGTAALGCLVKDYFPEPVTVSWNSGALTSGVHTFPAVLQSSGLYSLSSVVTVPSSSLGTQTYICNVNHKPSNTKVDKKVEPKSCDKTHTCPPCPAPELLGGPSVFLFPPKPKDTLMISRTPEVTCVVVDVSHEDPEVKFNWYVDGVEVHNAKTKPREEQYASTYRVVSVLTVLHQDWLNGKEYKCKVSNKALPAPIEKTISKAKGQPREPQVCTLPPSRDELTKNQVSLSCAVKGFYPSDIAVEWESNGQPENNYKTTPPVLDSDGSFFLVSKLTVDKSRWQQGNVFSCSVMHEALHNHYTQKSLSLSPGGGSSGPVPLSLYSGSGGGAVNGTSQFTCFYNSRANISCVWSQDGALQDTSCQVHAWPDRRRWNQTCELLPVSQASWACNLILGAPDSQKLTTVDIVTLRVLCREGVRWRVMAIQDFKPFENLRLMAPISLQVVHVETHRSNISWEISQASHYFERHLEFEARTLSPGHTWEEAPLLTLKQKQEWISLETLTPDTQYEFQVRVKPLQGEFTTWSPWSQPLAFRTKPAALGKD light: EIVLTQSPATLSLSPGERATLSCRASKGVSTSGYSYLHWYQQKPGQAPRLLIYLASYLESGVPARFSGSGSGTDFTLTISSLEPEDFAVYYCQHSRDLPLTFGGGTKVEIKRTVAAPSVFIFPPSDEQLKSGTASVVCLLNNFYPREAKVQWKVDNALQSGNSQESVTEQDSKDSTYSLSSTLTLSKADYEKHKVYACEVTHQGLSSPVTKSFNRGEC |
| – | – | – | 0.1 nM | TC47 (Fc fusion, Mask CD122 (C122A, N123C)) heavy 1: QVQLVQSGVEVKKPGASVKVSCKASGYTFTNYYMYWVRQAPGQGLEWMGGINPSNGGTNFNEKFKNRVTLTTDSSTTTAYMELKSLQFDDTAVYYCARRDYRFDMGFDYWGQGTTVTVSSASTKGPSVFPLAPSSKSTSGGTAALGCLVKDYFPEPVTVSWNSGALTSGVHTFPAVLQSSGLYSLSSVVTVPSSSLGTQTYICNVNHKPSNTKVDKKVEPKSCDKTHTCPPCPAPELLGGPSVFLFPPKPKDTLMISRTPEVTCVVVDVSHEDPEVKFNWYVDGVEVHNAKTKPREEQYASTYRVVSVLTVLHQDWLNGKEYKCKVSNKALPAPIEKTISKAKGQPREPQVYTLPPCRDELTKNQVSLWCLVKGFYPSDIAVEWESNGQPENNYKTTPPVLDSDGSFFLYSKLTVDKSRWQQGNVFSCSVMHEALHNRFTQKSLSLSPGGGSSPPGGGSSGGGSGPAPTSSSTKKTQLQLEHLLLDLQMILNGINNYKNPKLTAMLTAKFAMPKKATELKHLQCLEEALKPLEEVLNLAQSKNFHLRPRDLISNINVIVLELKGSETTFMCEYADETATIVEFLNRWITFAQSIISTLT heavy 2: QVQLVQSGVEVKKPGASVKVSCKASGYTFTNYYMYWVRQAPGQGLEWMGGINPSNGGTNFNEKFKNRVTLTTDSSTTTAYMELKSLQFDDTAVYYCARRDYRFDMGFDYWGQGTTVTVSSASTKGPSVFPLAPSSKSTSGGTAALGCLVKDYFPEPVTVSWNSGALTSGVHTFPAVLQSSGLYSLSSVVTVPSSSLGTQTYICNVNHKPSNTKVDKKVEPKSCDKTHTCPPCPAPELLGGPSVFLFPPKPKDTLMISRTPEVTCVVVDVSHEDPEVKFNWYVDGVEVHNAKTKPREEQYASTYRVVSVLTVLHQDWLNGKEYKCKVSNKALPAPIEKTISKAKGQPREPQVCTLPPSRDELTKNQVSLSCAVKGFYPSDIAVEWESNGQPENNYKTTPPVLDSDGSFFLVSKLTVDKSRWQQGNVFSCSVMHEALHNHYTQKSLSLSPGGGSSGPVPLSLYSGSGGGAVNGTSQFTCFYNSRANISCVWSQDGALQDTSCQVHAWPDRRRWNQTCELLPVSQASWACNLILGAPDSQKLTTVDIVTLRVLCREGVRWRVMAIQDFKPFENLRLMAPISLQVVHVETHRACISWEISQASHYFERHLEFEARTLSPGHTWEEAPLLTLKQKQEWICLETLTPDTQYEFQVRVKPLQGEFTTWSPWSQPLAFRTKPAALGKD light: EIVLTQSPATLSLSPGERATLSCRASKGVSTSGYSYLHWYQQKPGQAPRLLIYLASYLESGVPARFSGSGSGTDFTLTISSLEPEDFAVYYCQHSRDLPLTFGGGTKVEIKRTVAAPSVFIFPPSDEQLKSGTASVVCLLNNFYPREAKVQWKVDNALQSGNSQESVTEQDSKDSTYSLSSTLTLSKADYEKHKVYACEVTHQGLSSPVTKSFNRGEC |
